Biological target: T1, Myc-tagged Δ473-534 (Xenopus, UniProt P70056 61-472)
T1 construct: also called deletion of an additional 33 C-terminal amino acids
T1 sequence: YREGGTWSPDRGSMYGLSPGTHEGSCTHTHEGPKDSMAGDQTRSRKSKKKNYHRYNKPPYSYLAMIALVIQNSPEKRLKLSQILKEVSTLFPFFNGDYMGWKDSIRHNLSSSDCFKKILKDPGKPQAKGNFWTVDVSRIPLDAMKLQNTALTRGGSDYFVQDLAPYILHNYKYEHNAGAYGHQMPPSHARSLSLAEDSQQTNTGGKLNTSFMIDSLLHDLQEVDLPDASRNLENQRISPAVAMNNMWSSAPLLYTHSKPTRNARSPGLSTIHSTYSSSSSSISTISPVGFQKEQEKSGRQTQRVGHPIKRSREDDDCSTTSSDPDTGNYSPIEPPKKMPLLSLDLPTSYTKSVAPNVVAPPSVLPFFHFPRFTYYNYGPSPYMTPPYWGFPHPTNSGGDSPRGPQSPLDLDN
Test: FAST-1 deletion mutant co-expressed with tagged Smad in Xenopus embryos

binding result: no binding
B1: Myc-tagged Smad2 (other, not shown: small tags and cut ends)
chain: MSSILPFTPPVVKRLLGWKKSASGTTGAGGDEQNGQEEKWCEKAVKSLVKKLKKTGQLDELEKAITTQNCNTKCVTIPSTCSEIWGLSTANTIDQWDTTGLYSFSEQTRSLDGRLQVSHRKGLPHVIYCRLWRWPDLHSHHELKAIENCEYAFNLKKDEVCVNPYHYQRVETPVLPPVLVPRHTEILTELPPLDDYTHSIPENTNFPAGIEPQSNYIPETPPPGYISEDGETSDQQLNQSMDTGSPAELSPSTLSPVNHNLDLQPVTYSEPAFWCSIAYYELNQRVGETFHASQPSLTVDGFTDPSNSERFCLGLLSNVNRNATVEMTRRHIGRGVRLYYIGGEVFAECLSDSAIFVQSPNCNQRYGWHPATVCKIPPGCNLKIFNNQEFAALLAQSVNQGFEAVYQLTRMCTIRMSFVKGWGAEYRRQTVTSTPCWIELHLNGPLQWLDKVLTQMGSPSVRCSSMS
notes: Expressed from injected RNA in Xenopus embryos; also called Myc-Smad2

From patent US6365711 (Harvard, dated 2002)
